# Source: article PMC9484695, “The evolutionary conserved proteins CEP90, FOPNL, and OFD1 recruit centriolar distal appendage proteins to initiate their assembly” (PLoS Biology, 2022)
# T1: CEP90 (overexpressed) (UniProt Q8WXW3 1-757)
# T1 construct: CEP90 (PIBF1), cDNA clone from Dharmacon horizondiscovery; no tag is named; also called overexpressed CEP90; source: U2OS, transfected (lipofectamine 2000), in cells
# T1 sequence (looked up): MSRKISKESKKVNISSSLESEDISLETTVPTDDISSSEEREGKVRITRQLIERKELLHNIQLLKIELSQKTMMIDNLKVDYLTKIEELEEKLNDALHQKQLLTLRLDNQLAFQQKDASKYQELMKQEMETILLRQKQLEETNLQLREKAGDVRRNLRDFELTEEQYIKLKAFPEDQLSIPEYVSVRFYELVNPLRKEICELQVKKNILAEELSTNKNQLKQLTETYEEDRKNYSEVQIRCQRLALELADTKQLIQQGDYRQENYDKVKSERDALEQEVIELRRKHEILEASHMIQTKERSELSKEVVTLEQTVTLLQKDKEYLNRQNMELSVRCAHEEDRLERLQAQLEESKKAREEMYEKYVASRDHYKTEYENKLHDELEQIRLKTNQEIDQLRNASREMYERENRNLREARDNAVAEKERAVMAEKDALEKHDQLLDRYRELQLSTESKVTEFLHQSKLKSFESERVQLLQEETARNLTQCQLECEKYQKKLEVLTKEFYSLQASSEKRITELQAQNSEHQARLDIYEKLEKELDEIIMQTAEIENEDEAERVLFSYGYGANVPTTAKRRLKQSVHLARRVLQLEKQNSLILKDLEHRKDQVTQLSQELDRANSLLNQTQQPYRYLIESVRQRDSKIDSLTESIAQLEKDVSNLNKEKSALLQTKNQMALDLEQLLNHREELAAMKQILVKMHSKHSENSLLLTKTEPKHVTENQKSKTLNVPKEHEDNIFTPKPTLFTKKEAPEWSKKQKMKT
# Biological target: T1, CEP90 (overexpressed)
# Test: microtubule recruitment (displacement) assay; U2OS cotransfected with MNR-GFP and CEP90, OFD1 mCherry or myc-FOPNL, 24 h; endogenous OFD1, CEP90, CEP83, CEP89, CEP164 stained; percent of cells with the endogenous protein on microtubules, 100 < N < 150 cells per condition, 3 experiments
# Conditions: partners not purified
binder,measurement,value
"CEP83 (endogenous) (natural protein, human (endogenous in U2OS), UniProt Q9Y592 1-701, looked up, CEP83, endogenous human protein; also called endogenous CEP83; source: endogenous, U2OS cells) MVVSTFTDMDTFPNNFPPGGDSGLTGSQSEFQKMLIDERLRCEHHKANYQTLKAEHTRLQNEHVKLQNELKHLFNEKQTQQEKLQLLLEELRGELVEKTKDLEEMKLQILTPQKLELLRAQIQQELETPMRERFRNLDEEVEKYRAVYNKLRYEHTFLKSEFEHQKEEYARILDEGKIKYESEIARLEEDKEELRNQLLNVDLTKDSKRVEQLAREKVYLCQKLKGLEAEVAELKAEKENSEAQVENAQRIQVRQLAEMQATVRSLEAEKQSANLRAERLEKELQSSSEQNTFLINKLHKAEREINTLSSKVKELKHSNKLEITDIKLETARAKSELERERNKIQSELDGLQSDNEILKAAVEHHKVLLVEKDRELIRKVQAAKEEGYQKLVVLQDEKLELENRLADLEKMKVEHDVWRQSEKDQYEEKLRASQMAEEITRKELQSVRLKLQQQIVTIENAEKEKNENSDLKQQISSLQIQVTSLAQSENDLLNSNQMLKEMVERLKQECRNFRSQAEKAQLEAEKTLEEKQIQWLEEKHKLHERITDREEKYNQAKEKLQRAAIAQKKRKSLHENKLKRLQEKVEVLEAKKEELETENQVLNRQNVPFEDYTRLQKRLKDIQRRHNEFRSLILVPNMPPTASINPVSFQSSAMVPSMELPFPPHMQEEQHQRELSLLRKRLEELETTQRKQLEELGSSGE",percent of cells with the endogenous protein on microtubules,66.7%
"OFD1 (endogenous) (natural protein, UniProt O75665 1-1012, looked up, OFD1, endogenous human protein; source: endogenous: HEK293 Flp-In cells (BioID); Hela Kyoto lysate (co-IP); U2OS cells (microtubule recruitment assay)) MMAQSNMFTVADVLSQDELRKKLYQTFKDRGILDTLKTQLRNQLIHELMHPVLSGELQPRSISVEGSSLLIGASNSLVADHLQRCGYEYSLSVFFPESGLAKEKVFTMQDLLQLIKINPTSSLYKSLVSGSDKENQKGFLMHFLKELAEYHQAKESCNMETQTSSTFNRDSLAEKLQLIDDQFADAYPQRIKFESLEIKLNEYKREIEEQLRAEMCQKLKFFKDTEIAKIKMEAKKKYEKELTMFQNDFEKACQAKSEALVLREKSTLERIHKHQEIETKEIYAQRQLLLKDMDLLRGREAELKQRVEAFELNQKLQEEKHKSITEALRRQEQNIKSFEETYDRKLKNELLKYQLELKDDYIIRTNRLIEDERKNKEKAVHLQEELIAINSKKEELNQSVNRVKELELELESVKAQSLAITKQNHMLNEKVKEMSDYSLLKEEKLELLAQNKLLKQQLEESRNENLRLLNRLAQPAPELAVFQKELRKAEKAIVVEHEEFESCRQALHKQLQDEIEHSAQLKAQILGYKASVKSLTTQVADLKLQLKQTQTALENEVYCNPKQSVIDRSVNGLINGNVVPCNGEISGDFLNNPFKQENVLARMVASRITNYPTAWVEGSSPDSDLEFVANTKARVKELQQEAERLEKAFRSYHRRVIKNSAKSPLAAKSPPSLHLLEAFKNITSSSPERHIFGEDRVVSEQPQVGTLEERNDVVEALTGSAASRLRGGTSSRRLSSTPLPKAKRSLESEMYLEGLGRSHIASPSPCPDRMPLPSPTESRHSLSIPPVSSPPEQKVGLYRRQTELQDKSEFSDVDKLAFKDNEEFESSFESAGNMPRQLEMGGLSPAGDMSHVDAAAAAVPLSYQHPSVDQKQIEEQKEEEKIREQQVKERRQREERRQSNLQEVLERERRELEKLYQERKMIEESLKIKIKKELEMENELEMSNQEIKDKSAHSENPLEKYMKIIQQEQDQESADKSSKKMVQEGSLVDTLQSSDKVESLTGFSHEELDDSW",percent of cells with the endogenous protein on microtubules,63.3%
